First the molecules themselves.
B1: Linker for activation of T-cells family member 1 (Homo sapiens), O43561 (parent)
chain: MEEAILVPCVLGLLLLPILAMLMALCVHCHRLPGSYDSTSSDSLYPRGIQFKRPHTVAPWPPAYPPVTSYPPLSQPDLLPIPRSPQPLGGSHRTPSSRRDSDGANSVASYENEGASGIRGAQAGWGVWGPSWTRLTPVSLPPEPACEDADEDEDDYHNPGYLVVLPDSTPATSTAAPSAPALSTPGIRDSAFSMESIDDYVNVPESGESAEASLDGSREYVNVSQELHPGAAKTEPAALSSQEAEEVEEEGAPDYENLQELN

The variants in this experiment derive from B1. Conditions: with grb2_human GRB2, P62993.
Sequence of grb2_human GRB2, P62993 (P62993 whole entry, looked up): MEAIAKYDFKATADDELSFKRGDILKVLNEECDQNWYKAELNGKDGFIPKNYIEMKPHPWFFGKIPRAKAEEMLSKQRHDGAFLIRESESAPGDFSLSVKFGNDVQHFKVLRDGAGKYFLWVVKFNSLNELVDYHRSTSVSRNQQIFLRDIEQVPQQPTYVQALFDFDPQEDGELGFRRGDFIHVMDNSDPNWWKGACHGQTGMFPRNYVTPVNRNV
For the variant MEEAILVPCVLGLLLLPILAMLMALCVHCHRLPGSYDSTSSDSLYPRGIQFKRPHTVAPWPPAYPPVTSYPPLSQPDLLPIPRSPQPLGGSHRTPSSRRDSDGANSVASYENEGASGIRGAQAGWGVWGPSWTRLTPVSLPPEPACEDADEDEDDYHNPGYLVVLPDSTPATSTAAPSAPALSTPGIRDSAFSMESIDDFVNVPESGESAEASLDGSREFVNVSQELHPGAAKTEPAALSSQEAEEVEEEGAPDYENLQELN [Y200F;Y220F], the “effect of a mutation on the interaction” value is given as “decreasing interaction”.

These data come from IntAct's records for PubMed 16938345.
